The results in this text go back to patent US20220372155A1 (LYVGEN BIOPHARMA, published 2022).

B1: Ly805 (bispecific antibody, human IgG1, kappa)
heavy: QVQLQQPGAELVKPGASVKLSCKASGYTFTSYWMHWVKQRPGQGLEWIGMIHPNSGGTNYNEKFKGKGTLTVDKSSSTAYMQLSSLTSDDSAVYYCVTSQATWFAYWGQGTLVTVSAASTKGPSVFPLAPSSKSTSGGTAALGCLVKDYFPEPVTVSWNSGALTSGVHTFPAVLQSSGLYSLSSVVTVPSSSLGTQTYICNVNHKPSNTKVDKKVEPKSCDKTHTCPPCPAPELLGPSVFLFPPKPKDTLMISRTPEVTCVVVDVSHEDPEVKFNWYVDGVEVHNAKTKPREEQYNSTYRVVSVLTVLHQDWLNGKEYKCKVSNKALPAPIEKTISKAKGQPREPQVYTLPPSREEMTKNQVSLTCLVKGFYPSDIAVEWESNGQPENNYKTTPPVLDSDGSFFLYSKLTVDKSRWQQGNVFSCSVMHEALHNHYTQKSLSLSPG
light: ENVLTQSPAIMSVSPGEKVTMTCRASSSVSSSYLHWYQQKSGASPKFWIYSTSNLASGVPARFSGSGSGTSYSLTISSVEAEDAATYYCQHYSGYPLTFGAGTKLELRRTVAAPSVFIFPPSDEQLKSGTASVVCLLNNFYPREAKVQWKVDNALQSGNSQESVTEQDSKDSTYSLSSTLTLSKADYEKHKVYACEVTHQGLSSPVTKSFNRGECGGGGSGGGGSGGGGSGGGGSDIQMTQSPSSLSASVGDRVTITCKASQNIYIYLNWYQQKPGKAPKLLIYNTNNLQTGVPSRFSGSGSGTDFTLTISSLQPEDFATYYCLQHSSRRTFGGGTKVEIKGGGGSGGGGSGGGGSGGGGSQVQLVESGGGLVQPGGSLKLSCATSGFNFNDYFMNWVRQASGKGLEWVGQIRNKNYNYATYYTESLEGRVTISRDDSKNTAYLQMNSLKTEDTAVYYCTSYYYDGFADYFDYWGQGTTVTVSS
notes: Ly387 HC (IgG1 mutated Fc) + Ly387 LC-TM740 scFv VL-VH
B2: Ly815 (bispecific antibody, human IgG1, kappa)
heavy: B1 heavy
light: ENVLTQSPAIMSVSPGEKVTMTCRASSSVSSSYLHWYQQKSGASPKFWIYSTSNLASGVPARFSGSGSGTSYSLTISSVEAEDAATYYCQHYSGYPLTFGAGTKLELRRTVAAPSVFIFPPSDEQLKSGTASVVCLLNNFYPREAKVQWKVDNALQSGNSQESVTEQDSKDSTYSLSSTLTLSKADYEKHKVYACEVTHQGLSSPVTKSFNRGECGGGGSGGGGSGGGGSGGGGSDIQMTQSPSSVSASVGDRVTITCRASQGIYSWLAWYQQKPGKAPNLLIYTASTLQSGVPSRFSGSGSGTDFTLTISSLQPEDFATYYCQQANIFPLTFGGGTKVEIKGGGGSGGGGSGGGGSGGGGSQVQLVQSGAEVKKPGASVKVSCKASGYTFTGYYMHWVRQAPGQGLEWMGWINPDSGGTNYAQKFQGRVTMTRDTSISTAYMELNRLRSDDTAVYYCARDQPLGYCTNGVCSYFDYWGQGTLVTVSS
notes: Ly387 HC (IgG1 mutated Fc) + Ly387 LC-Ly253 scFv VL-VH
B3: Ly806 (bispecific antibody, human IgG1, kappa)
heavy: B1 heavy
light: ENVLTQSPAIMSVSPGEKVTMTCRASSSVSSSYLHWYQQKSGASPKFWIYSTSNLASGVPARFSGSGSGTSYSLTISSVEAEDAATYYCQHYSGYPLTFGAGTKLELRRTVAAPSVFIFPPSDEQLKSGTASVVCLLNNFYPREAKVQWKVDNALQSGNSQESVTEQDSKDSTYSLSSTLTLSKADYEKHKVYACEVTHQGLSSPVTKSFNRGECGGGGSGGGGSGGGGSGGGGSQVQLVESGGGLVQPGGSLKLSCATSGFNFNDYFMNWVRQASGKGLEWVGQIRNKNYNYATYYTESLEGRVTISRDDSKNTAYLQMNSLKTEDTAVYYCTSYYYDGFADYFDYWGQGTTVTVSSGGGGSGGGGSGGGGSGGGGSDIQMTQSPSSLSASVGDRVTITCKASQNIYIYLNWYQQKPGKAPKLLIYNTNNLQTGVPSRFSGSGSGTDFTLTISSLQPEDFATYYCLQHSSRRTFGGGTKVEIK
notes: Ly387 HC (IgG1 mutated Fc) + Ly387 LC-TM740 scFv VH-VL
B4: Ly816 (bispecific antibody, human IgG1, kappa)
heavy: B1 heavy
light: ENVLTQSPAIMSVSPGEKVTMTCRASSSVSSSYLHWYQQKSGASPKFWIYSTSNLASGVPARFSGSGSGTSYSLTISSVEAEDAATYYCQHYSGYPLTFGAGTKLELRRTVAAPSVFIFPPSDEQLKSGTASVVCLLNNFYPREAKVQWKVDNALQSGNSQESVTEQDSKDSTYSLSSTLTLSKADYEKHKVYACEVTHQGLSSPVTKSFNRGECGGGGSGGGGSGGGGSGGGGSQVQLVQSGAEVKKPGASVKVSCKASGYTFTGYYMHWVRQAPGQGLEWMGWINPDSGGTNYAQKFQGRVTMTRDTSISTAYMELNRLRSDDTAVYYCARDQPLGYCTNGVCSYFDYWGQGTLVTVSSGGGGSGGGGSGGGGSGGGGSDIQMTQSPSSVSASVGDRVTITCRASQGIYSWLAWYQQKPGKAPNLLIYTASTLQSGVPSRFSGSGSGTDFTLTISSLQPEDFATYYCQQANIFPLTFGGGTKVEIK
notes: Ly387 HC (IgG1 mutated Fc) + Ly387 LC-Ly253 scFv VH-VL
B5: Ly807 (bispecific antibody, human IgG1, kappa)
heavy: B1 heavy
light: ENVLTQSPAIMSVSPGEKVTMTCRASSSVSSSYLHWYQQKSGASPKFWIYSTSNLASGVPARFSGSGSGTSYSLTISSVEAEDAATYYCQHYSGYPLTFGAGTKLELRRTVAAPSVFIFPPSDEQLKSGTASVVCLLNNFYPREAKVQWKVDNALQSGNSQESVTEQDSKDSTYSLSSTLTLSKADYEKHKVYACEVTHQGLSSPVTKSFNRGECGGGGSGGGGSGGGGSGGGGSDIQMTQSPSSLSASVGDRVTITCLASEDISNDLAWYQQKPGKAPKLLIYFVDRLLDGVPSRFSGSGSGTDFTLTISSLQPEDFATYYCQQSYKYPPTFGQGTKLEIKGGGGSGGGGSGGGGSGGGGSEVQLVESGGGLVQPGGSLRLSCAASGFTFTNYGLHWVRQAPGKGLEWVSSISPSGGVTYYRDSVKGRFTISRDNSKNTLYLQMNSLRAEDTAVYYCAKPFLGWGGANWIAHWGQGTLVTVSS
notes: Ly387 HC (IgG1 mutated Fc) + Ly387 LC-TM559 scFv VL-VH
B6: Ly808 (bispecific antibody, human IgG1, kappa)
heavy: B1 heavy
light: ENVLTQSPAIMSVSPGEKVTMTCRASSSVSSSYLHWYQQKSGASPKFWIYSTSNLASGVPARFSGSGSGTSYSLTISSVEAEDAATYYCQHYSGYPLTFGAGTKLELRRTVAAPSVFIFPPSDEQLKSGTASVVCLLNNFYPREAKVQWKVDNALQSGNSQESVTEQDSKDSTYSLSSTLTLSKADYEKHKVYACEVTHQGLSSPVTKSFNRGECGGGGSGGGGSGGGGSGGGGSEVQLVESGGGLVQPGGSLRLSCAASGFTFTNYGLHWVRQAPGKGLEWVSSISPSGGVTYYRDSVKGRFTISRDNSKNTLYLQMNSLRAEDTAVYYCAKPFLGWGGANWIAHWGQGTLVTVSSGGGGSGGGGSGGGGSGGGGSDIQMTQSPSSLSASVGDRVTITCLASEDISNDLAWYQQKPGKAPKLLIYFVDRLLDGVPSRFSGSGSGTDFTLTISSLQPEDFATYYCQQSYKYPPTFGQGTKLEIK
notes: Ly387 HC (IgG1 mutated Fc) + Ly387 LC-TM559 scFv VH-VL
B7: Ly622 (bispecific antibody, human IgG1, kappa)
heavy: EVQLVESGGGLVQPGGSLRLSCAASGFTFTDYTMDWVRQAPGKGLEWVADVNPNSGGSIYNQRFKGRFTLSVDRSKNTLYLQMNSLRAEDTAVYYCARNLGPSFYFDYWGQGTLVTVSSASTKGPSVFPLAPSSKSTSGGTAALGCLVKDYFPEPVTVSWNSGALTSGVHTFPAVLQSSGLYSLSSVVTVPSSSLGTQTYICNVNHKPSNTKVDKKVEPKSCDKTHTCPPCPAPELLGPSVFLFPPKPKDTLMISRTPEVTCVVVDVSHEDPEVKFNWYVDGVEVHNAKTKPREEQYNSTYRVVSVLTVLHQDWLNGKEYKCKVSNKALPAPIEKTISKAKGQPREPQVYTLPPSREEMTKNQVSLTCLVKGFYPSDIAVEWESNGQPENNYKTTPPVLDSDGSFFLYSKLTVDKSRWQQGNVFSCSVMHEALHNHYTQKSLSLSPGGGGGSGGGGSGGGGSGGGGSDIQMTQSPSSLSASVGDRVTITCKASQNIYIYLNWYQQKPGKAPKLLIYNTNNLQTGVPSRFSGSGSGTDFTLTISSLQPEDFATYYCLQHSSRRTFGGGTKVEIKGGGGSGGGGSGGGGSGGGGSQVQLVESGGGLVQPGGSLKLSCATSGFNFNDYFMNWVRQASGKGLEWVGQIRNKNYNYATYYTESLEGRVTISRDDSKNTAYLQMNSLKTEDTAVYYCTSYYYDGFADYFDYWGQGTTVTVSS
light: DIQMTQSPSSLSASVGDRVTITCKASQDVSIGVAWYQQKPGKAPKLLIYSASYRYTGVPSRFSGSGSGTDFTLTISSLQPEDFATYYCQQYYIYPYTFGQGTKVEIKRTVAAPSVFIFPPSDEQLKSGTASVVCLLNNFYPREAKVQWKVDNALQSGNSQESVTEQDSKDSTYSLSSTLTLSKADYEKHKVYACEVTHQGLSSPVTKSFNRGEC
notes: Ly591 HC (IgG1 mutated Fc)-TM740 scFv VL-VH + Ly591 LC
B8: Ly809 (bispecific antibody, human IgG1, kappa)
heavy: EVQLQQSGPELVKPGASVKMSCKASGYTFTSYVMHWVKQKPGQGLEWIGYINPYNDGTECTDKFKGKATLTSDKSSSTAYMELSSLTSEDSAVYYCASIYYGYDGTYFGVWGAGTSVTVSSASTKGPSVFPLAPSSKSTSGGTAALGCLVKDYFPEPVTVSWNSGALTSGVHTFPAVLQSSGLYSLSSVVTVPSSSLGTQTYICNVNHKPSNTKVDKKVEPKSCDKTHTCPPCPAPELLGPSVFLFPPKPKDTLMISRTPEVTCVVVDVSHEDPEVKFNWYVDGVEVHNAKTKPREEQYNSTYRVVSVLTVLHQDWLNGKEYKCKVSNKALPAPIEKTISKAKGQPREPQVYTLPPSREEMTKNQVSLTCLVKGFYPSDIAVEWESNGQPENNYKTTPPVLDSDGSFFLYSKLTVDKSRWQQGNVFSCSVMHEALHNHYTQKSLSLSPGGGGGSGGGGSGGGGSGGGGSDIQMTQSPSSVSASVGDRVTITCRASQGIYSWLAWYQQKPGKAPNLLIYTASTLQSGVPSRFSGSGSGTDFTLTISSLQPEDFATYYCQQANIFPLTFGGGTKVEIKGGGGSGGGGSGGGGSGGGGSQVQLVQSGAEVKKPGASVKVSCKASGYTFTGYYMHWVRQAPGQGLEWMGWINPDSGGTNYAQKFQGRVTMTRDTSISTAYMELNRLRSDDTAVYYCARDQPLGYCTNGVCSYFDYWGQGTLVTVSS
light: QIVLSQSPAILSTSPGEKVTMTCRASSSVSYMHWYQQKPGSSPKPWIYATSNLASGVPARFSGSRSGTSYSLTISRVEAEDAATYYCQQWSSNTLTFGGGTKLELKRTVAAPSVFIFPPSDEQLKSGTASVVCLLNNFYPREAKVQWKVDNALQSGNSQESVTEQDSKDSTYSLSSTLTLSKADYEKHKVYACEVTHQGLSSPVTKSFNRGEC
notes: Ly383 HC (IgG1 mutated Fc)-Ly253 scFv VL-VH + Ly383 LC
B9: Ly810 (bispecific antibody, human IgG1, kappa)
heavy: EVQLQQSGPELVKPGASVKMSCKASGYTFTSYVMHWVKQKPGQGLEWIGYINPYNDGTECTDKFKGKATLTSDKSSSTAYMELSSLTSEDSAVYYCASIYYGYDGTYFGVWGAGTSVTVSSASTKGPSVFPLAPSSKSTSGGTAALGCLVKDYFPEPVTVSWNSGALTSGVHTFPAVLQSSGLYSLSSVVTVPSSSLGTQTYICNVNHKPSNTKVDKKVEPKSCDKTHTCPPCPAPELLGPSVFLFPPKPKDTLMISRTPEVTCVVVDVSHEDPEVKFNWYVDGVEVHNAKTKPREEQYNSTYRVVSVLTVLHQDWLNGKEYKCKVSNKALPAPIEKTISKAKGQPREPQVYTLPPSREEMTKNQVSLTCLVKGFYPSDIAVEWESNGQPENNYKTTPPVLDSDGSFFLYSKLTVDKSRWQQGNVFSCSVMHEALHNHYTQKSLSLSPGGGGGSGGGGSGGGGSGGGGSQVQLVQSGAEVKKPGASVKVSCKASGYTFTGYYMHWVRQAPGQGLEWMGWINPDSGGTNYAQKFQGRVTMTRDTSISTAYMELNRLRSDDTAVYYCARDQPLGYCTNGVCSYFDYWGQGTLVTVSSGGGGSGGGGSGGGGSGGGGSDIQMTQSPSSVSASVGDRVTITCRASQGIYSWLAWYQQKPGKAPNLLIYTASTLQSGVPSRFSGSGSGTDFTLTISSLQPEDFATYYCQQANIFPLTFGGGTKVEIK
light: B8 light
notes: Ly383 HC (IgG1 mutated Fc)-Ly253 scFv VH-VL + Ly383 LC
B10: Ly803 (bispecific antibody, human IgG1, kappa)
heavy: EVQLQQSGPELVKPGASVKMSCKASGYTFTSYVMHWVKQKPGQGLEWIGYINPYNDGTECTDKFKGKATLTSDKSSSTAYMELSSLTSEDSAVYYCASIYYGYDGTYFGVWGAGTSVTVSSASTKGPSVFPLAPSSKSTSGGTAALGCLVKDYFPEPVTVSWNSGALTSGVHTFPAVLQSSGLYSLSSVVTVPSSSLGTQTYICNVNHKPSNTKVDKKVEPKSCDKTHTCPPCPAPELLGPSVFLFPPKPKDTLMISRTPEVTCVVVDVSHEDPEVKFNWYVDGVEVHNAKTKPREEQYNSTYRVVSVLTVLHQDWLNGKEYKCKVSNKALPAPIEKTISKAKGQPREPQVYTLPPSREEMTKNQVSLTCLVKGFYPSDIAVEWESNGQPENNYKTTPPVLDSDGSFFLYSKLTVDKSRWQQGNVFSCSVMHEALHNHYTQKSLSLSPG
light: QIVLSQSPAILSTSPGEKVTMTCRASSSVSYMHWYQQKPGSSPKPWIYATSNLASGVPARFSGSRSGTSYSLTISRVEAEDAATYYCQQWSSNTLTFGGGTKLELKRTVAAPSVFIFPPSDEQLKSGTASVVCLLNNFYPREAKVQWKVDNALQSGNSQESVTEQDSKDSTYSLSSTLTLSKADYEKHKVYACEVTHQGLSSPVTKSFNRGECGGGGSGGGGSGGGGSGGGGSDIQMTQSPSSLSASVGDRVTITCLASEDISNDLAWYQQKPGKAPKLLIYFVDRLLDGVPSRFSGSGSGTDFTLTISSLQPEDFATYYCQQSYKYPPTFGQGTKLEIKGGGGSGGGGSGGGGSGGGGSEVQLVESGGGLVQPGGSLRLSCAASGFTFTNYGLHWVRQAPGKGLEWVSSISPSGGVTYYRDSVKGRFTISRDNSKNTLYLQMNSLRAEDTAVYYCAKPFLGWGGANWIAHWGQGTLVTVSS
notes: Ly383 HC (IgG1 mutated Fc) + Ly383 LC-TM559 scFv VL-VH
B11: Ly804 (bispecific antibody, human IgG1, kappa)
heavy: B10 heavy
light: QIVLSQSPAILSTSPGEKVTMTCRASSSVSYMHWYQQKPGSSPKPWIYATSNLASGVPARFSGSRSGTSYSLTISRVEAEDAATYYCQQWSSNTLTFGGGTKLELKRTVAAPSVFIFPPSDEQLKSGTASVVCLLNNFYPREAKVQWKVDNALQSGNSQESVTEQDSKDSTYSLSSTLTLSKADYEKHKVYACEVTHQGLSSPVTKSFNRGECGGGGSGGGGSGGGGSGGGGSEVQLVESGGGLVQPGGSLRLSCAASGFTFTNYGLHWVRQAPGKGLEWVSSISPSGGVTYYRDSVKGRFTISRDNSKNTLYLQMNSLRAEDTAVYYCAKPFLGWGGANWIAHWGQGTLVTVSSGGGGSGGGGSGGGGSGGGGSDIQMTQSPSSLSASVGDRVTITCLASEDISNDLAWYQQKPGKAPKLLIYFVDRLLDGVPSRFSGSGSGTDFTLTISSLQPEDFATYYCQQSYKYPPTFGQGTKLEIK
notes: Ly383 HC (IgG1 mutated Fc) + Ly383 LC-TM559 scFv VH-VL
B12: Ly813 (bispecific antibody, human IgG1, kappa)
heavy: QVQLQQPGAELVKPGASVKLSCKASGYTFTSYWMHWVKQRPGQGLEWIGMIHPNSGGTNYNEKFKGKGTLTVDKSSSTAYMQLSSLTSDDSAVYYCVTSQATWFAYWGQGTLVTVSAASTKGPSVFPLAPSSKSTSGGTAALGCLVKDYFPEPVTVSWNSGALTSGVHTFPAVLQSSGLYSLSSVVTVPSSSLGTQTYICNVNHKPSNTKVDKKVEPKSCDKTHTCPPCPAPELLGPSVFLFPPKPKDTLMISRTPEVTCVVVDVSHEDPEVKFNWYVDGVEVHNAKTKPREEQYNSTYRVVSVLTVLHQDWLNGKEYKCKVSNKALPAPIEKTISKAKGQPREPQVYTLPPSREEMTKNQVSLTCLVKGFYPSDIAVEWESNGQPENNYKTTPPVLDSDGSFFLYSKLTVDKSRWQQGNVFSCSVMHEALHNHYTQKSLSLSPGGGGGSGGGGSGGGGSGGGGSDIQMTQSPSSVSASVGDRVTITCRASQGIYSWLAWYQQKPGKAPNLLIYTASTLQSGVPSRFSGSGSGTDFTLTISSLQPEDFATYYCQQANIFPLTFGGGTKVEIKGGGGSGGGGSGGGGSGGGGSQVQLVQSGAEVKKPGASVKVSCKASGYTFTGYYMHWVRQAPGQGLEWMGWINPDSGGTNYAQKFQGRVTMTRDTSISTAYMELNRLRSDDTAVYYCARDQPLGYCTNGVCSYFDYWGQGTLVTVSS
light: ENVLTQSPAIMSVSPGEKVTMTCRASSSVSSSYLHWYQQKSGASPKFWIYSTSNLASGVPARFSGSGSGTSYSLTISSVEAEDAATYYCQHYSGYPLTFGAGTKLELRRTVAAPSVFIFPPSDEQLKSGTASVVCLLNNFYPREAKVQWKVDNALQSGNSQESVTEQDSKDSTYSLSSTLTLSKADYEKHKVYACEVTHQGLSSPVTKSFNRGEC
notes: Ly387 HC (IgG1 mutated Fc)-Ly253 scFv VL-VH + Ly387 LC
B13: Ly814 (bispecific antibody, human IgG1, kappa)
heavy: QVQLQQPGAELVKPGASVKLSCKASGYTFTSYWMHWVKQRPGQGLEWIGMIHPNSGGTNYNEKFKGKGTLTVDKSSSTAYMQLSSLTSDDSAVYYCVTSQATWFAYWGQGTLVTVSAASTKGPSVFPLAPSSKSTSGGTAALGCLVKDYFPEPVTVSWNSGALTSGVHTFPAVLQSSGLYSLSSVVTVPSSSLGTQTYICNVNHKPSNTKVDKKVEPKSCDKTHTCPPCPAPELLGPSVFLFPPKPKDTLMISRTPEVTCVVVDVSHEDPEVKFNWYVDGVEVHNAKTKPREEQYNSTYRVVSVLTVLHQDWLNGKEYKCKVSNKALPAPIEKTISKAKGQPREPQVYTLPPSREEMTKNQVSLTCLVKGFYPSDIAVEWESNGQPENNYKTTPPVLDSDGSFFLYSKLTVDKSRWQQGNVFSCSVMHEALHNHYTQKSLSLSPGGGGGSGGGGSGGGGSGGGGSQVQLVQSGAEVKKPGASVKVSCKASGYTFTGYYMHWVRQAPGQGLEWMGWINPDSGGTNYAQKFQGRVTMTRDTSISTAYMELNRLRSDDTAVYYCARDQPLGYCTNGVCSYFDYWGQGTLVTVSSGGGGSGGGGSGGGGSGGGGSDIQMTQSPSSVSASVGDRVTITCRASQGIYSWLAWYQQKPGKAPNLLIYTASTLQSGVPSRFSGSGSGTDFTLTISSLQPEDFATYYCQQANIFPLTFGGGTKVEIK
light: B12 light
notes: Ly387 HC-Ly253 scFv VH-VL + Ly387 LC

T1 sequence (P25942 21-277): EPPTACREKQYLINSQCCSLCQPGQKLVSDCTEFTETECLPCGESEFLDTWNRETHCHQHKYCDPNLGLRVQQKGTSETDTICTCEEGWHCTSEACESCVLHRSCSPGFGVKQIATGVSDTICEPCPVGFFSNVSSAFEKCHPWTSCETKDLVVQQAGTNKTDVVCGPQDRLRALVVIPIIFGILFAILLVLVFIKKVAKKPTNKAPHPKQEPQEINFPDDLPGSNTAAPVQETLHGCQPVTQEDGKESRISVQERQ

This assay has as its target T1, human CD40 expressed on CHO cells (human, UniProt P25942 21-277).
T1 construct: whole, on cells; also used for the reporter cells over-expressing human CD40; also called cellular CD40; CHO-CD40 cells
Briefly: FACS, CHO cells. A general note: Flow cytometry measures light scatter and fluorescence of single cells or particles in a stream.
Take B1: the binding result is “binds”.

Consider B2, for which the binding result is reported as “binds”.

As for B3, the binding result was “binds”.

As to B4, the binding result is recorded as “binds”.

For B5, the binding result is “binds”.

Regarding B6, the binding result is listed as “binds”.

Turning to B7, the binding result is reported as “binds”.

Consider B8, for which the binding result is listed as “binds”.

For the molecule B9, the binding result was “binds”.

For the molecule B10, the binding result is “binds”.

Regarding B11, the binding result is reported as “binds”.

Regarding B12, the binding result was “binds”.

Consider B13, for which the binding result is recorded as “binds”.
